Measured values from the supplement of paper PMC10126150.
± gives the standard deviation of the averaged measurements.

Tested on: ATP
Assay: switch fluorescence ratio, 500 uM ATP over buffer (Cy3 cluster intensity, sum of 5 cycles each) (fold (ratio)); higher = stronger signal-on switching upon ATP binding; sequences stand for … in TCGTCGGCAGCGTCAGATGTGTATAAGAGACAGTTTTTTTTTTTTTTTTTTTTTTTTT…TC
Settings: aptamer strand: ATP DNA aptamer (quencher-CACCTGGGGGAGTATTGCGGAGGAAGG + anchor), 100 nM annealed; ATP concentration: 500 uM
Method in brief: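 The quencher-labelled ATP aptamer, at 100 nM, was annealed to Cy3-labelled switching-strand clusters on a modified Illumina MiSeq flow-cell. The clusters were imaged in selection buffer, then after 15 min with 500 uM ATP at 22 °C, and this buffer/ATP cycle ran five times with NaOH stripping and re-annealing between runs. Per-cluster fluorescence ratios, summed target-cycle over summed buffer-cycle Cy3 intensity, were averaged per switch-domain sequence. Clusters outside 100-1000 RFU were excluded.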
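Further: ATP exposure 15 min at 22 °C before imaging.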

| Sequence | switch fluorescence ratio |
| --- | --- |
| ACTCGTCACA | 1.15 ± 0.059 |
| ACTCTAGTTC | 1.063 ± 0.01 |
| ACTCTATAAT | 1.146 ± 0.0092 |
| ACTCTTATTG | 0.988 ± 0.0039 |
| ACTCTTGTTG | 1.01 ± 0.022 |
| ACTGAAAAAG | 0.987 ± 0.019 |
| ACTGACTGGT | 1.06 ± 0.037 |
| ACTGATAGAG | 1.02 ± 0.065 |
| ACTGATAGGC | 1.18 ± 0.23 |
| ACTGATCATG | 1.02 ± 0.028 |
| ACTGATGAAT | 1.06 ± 0.023 |
| ACTGATGATC | 1.016 ± 0.0039 |
| ACTGATTTTT | 1.015 ± 0.0036 |
| ACTGGAAGTC | 0.9875 ± 0.0088 |
| ACTGGATGCT | 0.995 ± 0.12 |
| ACTGGCAGC | 1.05 ± 0.017 |
| ACTGGCAGGG | 1.01 ± 0.028 |
| ACTGGGAGGC | 1 ± 0.096 |
| ACTGGGCATG | 1.01 ± 0.032 |
| ACTGGGCCGG | 1.04 ± 0.065 |
| ACTGGGGGCT | 0.975 ± 0.0098 |
| ACTGGGGTAG | 1.02 ± 0.061 |
| ACTGGGTCCG | 1 ± 0.057 |
| ACTGGTCTCA | 1.002 ± 0.0098 |
| ACTGTAAGTC | 1.06 ± 0.026 |

| Sequence | switch fluorescence ratio |
| --- | --- |
| ACTGTACGGC | 1.46 ± 0.016 |
| ACTGTATACG | 1.08 ± 0.026 |
| ACTGTCCCGT | 1.019 ± 0.0029 |
| ACTGTGCGAC | 1.58 ± 0.025 |
| ACTGTGCGTA | 1.03 ± 0.054 |
| ACTGTGCTCT | 1.02 ± 0.016 |
| ACTGTGGGCA | 1.01 ± 0.02 |
| ACTGTTAATG | 1.01 ± 0.026 |
| ACTGTTAGAT | 1.02 ± 0.054 |
| ACTGTTAGGT | 1.036 ± 0.0055 |
| ACTGTTAGTG | 1.02 ± 0.034 |
| ACTGTTTTCC | 1.066 ± 0.0042 |
| ACTGTTTTCG | 1.02 ± 0.028 |
| ACTTAAAGTC | 0.973 ± 0.029 |
| ACTTAACCGG | 1.05 ± 0.016 |
| ACTTAAGAAA | 1.16 ± 0.13 |
| ACTTAAGGTC | 1.001 ± 0.0035 |
| ACTTAATCGT | 1.02 ± 0.045 |
| ACTTACATGG | 1.23 ± 0.06 |
| ACTTACTTTA | 1.18 ± 0.04 |
| ACTTAGAAAT | 1.046 ± 0.01 |
| ACTTAGCATT | 1.14 ± 0.024 |
| ACTTAGTCA | 1.02 ± 0.021 |
| ACTTAGTCCA | 1.03 ± 0.034 |
| ACTTAGTGCC | 1.087 ± 0.0073 |

| Sequence | switch fluorescence ratio |
| --- | --- |
| ACTTAGTTTT | 1.0386 ± 0.00082 |
| ACTTATAATA | 1.04 ± 0.038 |
| ACTTATTAAT | 1.03 ± 0.027 |
| ACTTATTGAA | 1.11 ± 0.17 |
| ACTTCAAGGG | 1.26 ± 0.34 |
| ACTTCACTGC | 1.34 ± 0.042 |
| ACTTCATGGG | 1.01 ± 0.029 |
| ACTTCCCAAC | 1.33 ± 0.047 |
| ACTTCCGCGA | 1.75 ± 0.11 |
| ACTTCGGTTT | 1.01 ± 0.035 |
| ACTTCTCTTA | 1.01 ± 0.013 |
| ACTTCTGGTG | 1.23 ± 0.031 |
| ACTTGAGGAT | 1 ± 0.017 |
| ACTTGATAGG | 1.03 ± 0.041 |
| ACTTGATGGG | 0.992 ± 0.045 |
| ACTTGCTTGT | 1.02 ± 0.013 |
| ACTTGGCGCT | 1.034 ± 0.0095 |
| ACTTGGGGAG | 1 ± 0.014 |
| ACTTGTAGAT | 1.009 ± 0.0059 |
| ACTTGTCATC | 0.992 ± 0.043 |
| ACTTTACAAA | 1.28 ± 0.036 |
| ACTTTACTTA | 1.33 ± 0.02 |
| ACTTTAGATT | 1.04 ± 0.0053 |
| ACTTTATGTG | 0.996 ± 0.035 |
| ACTTTCCGTT | 1.1 ± 0.05 |

| Sequence | switch fluorescence ratio |
| --- | --- |
| ACTTTCGATT | 1.09 ± 0.13 |
| ACTTTGGAGA | 1.029 ± 0.0054 |
| ACTTTGGTGC | 1.03 ± 0.026 |
| ACTTTTACAT | 1.13 ± 0.025 |
| ACTTTTCTCG | 1.01 ± 0.011 |
| ACTTTTCTCT | 1.02 ± 0.021 |
| ACTTTTGCTG | 0.983 ± 0.019 |
| ACTTTTGGCG | 1 ± 0.071 |
| ACTTTTTAGG | 1.01 ± 0.044 |
| ACTTTTTTAA | 1.004 ± 0.0029 |
| ACTTTTTTTT | 1.01 ± 0.034 |
| AGAAAAAGTT | 1.017 ± 0.0048 |
| AGAAAAGGGG | 1.01 ± 0.054 |
| AGAAAATTAC | 2.42 ± 2 |
| AGAAAATTCG | 0.981 ± 0.024 |
| AGAAAATTTC | 1.04 ± 0.051 |
| AGAAACGGAA | 1.27 ± 0.35 |
| AGAAACGGAG | 1.02 ± 0.016 |
| AGAAAGGAGT | 0.9982 ± 0.0032 |
| AGAAATAATC | 1.01 ± 0.015 |
| AGAAATTTGA | 0.98 ± 0.013 |
| AGAACGCGTA | 1.03 ± 0.013 |
| AGAACGGTAT | 1.048 ± 0.0034 |
| AGAACGTCTG | 0.9969 ± 0.0022 |
| AGAACGTTCT | 0.9851 ± 0.0059 |

| Sequence | switch fluorescence ratio |
| --- | --- |
| AGAACTGTGA | 0.9889 ± 0.0037 |
| AGAACTTAAG | 1.01 ± 0.037 |
| AGAAGCCCCT | 0.992 ± 0.031 |
| AGAAGCTATT | 0.9724 ± 0.0017 |
| AGAAGGCGGC | 1 ± 0.023 |
| AGAAGGGAGG | 0.987 ± 0.011 |
| AGAAGGGCGG | 0.99 ± 0.037 |
| AGAAGTAATG | 0.997 ± 0.011 |
| AGAATAAAGG | 0.993 ± 0.05 |
| AGAATAGGCG | 1.02 ± 0.022 |
| AGAATATCGT | 0.984 ± 0.043 |
| AGAATATTCT | 0.98 ± 0.014 |
| AGAATCGTAT | 1.01 ± 0.028 |
| AGAATGAGTG | 1.026 ± 0.0048 |
| AGAATGATTA | 0.986 ± 0.01 |
| AGAATGCTTT | 0.9971 ± 0.0034 |
| AGAATGGTAT | 1.07 ± 0.08 |
| AGAATGGTGT | 1.02 ± 0.038 |
| AGAATGGTTT | 0.985 ± 0.03 |
| AGAATGTTTC | 0.973 ± 0.021 |
| AGAATTCAAC | 1.003 ± 0.004 |
| AGAATTGAGG | 0.979 ± 0.016 |
| AGACAAGGGC | 1.06 ± 0.084 |
| AGACACGGGG | 1.06 ± 0.02 |
| AGACAGGGAC | 1.04 ± 0.016 |

| Sequence | switch fluorescence ratio |
| --- | --- |
| AGACAGGGAG | 1.01 ± 0.031 |
| AGACCATAGA | 1.02 ± 0.024 |
| AGACCTTCTT | 1.51 ± 0.025 |
| AGACCTTGGT | 0.963 ± 0.03 |
| AGACGCGCCA | 1.05 ± 0.087 |
| AGACGGAAAG | 0.982 ± 0.015 |
| AGACGGAACT | 1.08 ± 0.025 |
| AGACGGTATT | 1.056 ± 0.0039 |
| AGACGTCCCA | 1.02 ± 0.022 |
| AGACTCGCCC | 1.12 ± 0.059 |
| AGACTGCATT | 1.06 ± 0.03 |
| AGACTGTTGA | 1.04 ± 0.019 |
| AGAGAAAGGG | 1.02 ± 0.035 |
| AGAGAACCCT | 1.08 ± 0.048 |
| AGAGAAGGGA | 1.002 ± 0.0071 |
| AGAGAAGGGT | 0.996 ± 0.017 |
| AGAGAATATT | 1.03 ± 0.039 |
| AGAGAATGCG | 1.02 ± 0.049 |
| AGAGACACGG | 1.03 ± 0.079 |
| AGAGAGAGTT | 0.974 ± 0.032 |
| AGAGAGGAGG | 0.997 ± 0.066 |
| AGAGAGGCTA | 1 ± 0.015 |
| AGAGAGGTCA | 0.997 ± 0.042 |
| AGAGAGTAGA | 1.02 ± 0.021 |
| AGAGAGTTTA | 1.04 ± 0.021 |

| Sequence | switch fluorescence ratio |
| --- | --- |
| AGAGATACTT | 1.01 ± 0.035 |
| AGAGATTGCC | 1.0678 ± 0.0008 |
| AGAGATTTAT | 0.988 ± 0.019 |
| AGAGCATACT | 2.12 ± 0.22 |
| AGAGCATAGG | 1.03 ± 0.048 |
| AGAGCCCTTA | 1.01 ± 0.014 |
| AGAGCCGCTG | 1.02 ± 0.068 |
| AGAGCCGGGG | 0.9777 ± 0.003 |
| AGAGCCGGTG | 1 ± 0.041 |
| AGAGCGAGGA | 0.986 ± 0.027 |
| AGAGCGGTTG | 0.969 ± 0.037 |
| AGAGCGTTAG | 1.02 ± 0.051 |
| AGAGCTATAA | 1.254 ± 0.0015 |
| AGAGCTGCCT | 1.06 ± 0.042 |
| AGAGGAGTTA | 0.985 ± 0.011 |
| AGAGGATGTA | 1 ± 0.056 |
| AGAGGATTTG | 1.02 ± 0.022 |
| AGAGGCAGCT | 1.03 ± 0.046 |
| AGAGGCCATC | 0.9831 ± 0.0098 |
| AGAGGCTAGG | 1.01 ± 0.032 |
| AGAGGCTGAA | 1 ± 0.012 |
| AGAGGCTGAT | 0.983 ± 0.014 |
| AGAGGCTGGT | 0.992 ± 0.017 |
| AGAGGCTGTT | 1.03 ± 0.041 |
| AGAGGGAGGA | 1.017 ± 0.0086 |

| Sequence | switch fluorescence ratio |
| --- | --- |
| AGAGGGATCT | 1.022 ± 0.0072 |
| AGAGGGGAGG | 0.988 ± 0.0054 |
| AGAGGGGGG | 0.99 ± 0.017 |
| AGAGGGGGGT | 0.99 ± 0.022 |
| AGAGGGGGTA | 0.997 ± 0.022 |
| AGAGGGGTTC | 1.01 ± 0.029 |
| AGAGGTAAT | 1.09 ± 0.12 |
| AGAGGTGTCT | 1 ± 0.049 |
| AGAGGTTCC | 1 ± 0.058 |
| AGAGTAAAGC | 0.996 ± 0.02 |
| AGAGTAGAGG | 1.01 ± 0.028 |
| AGAGTATTTA | 0.991 ± 0.011 |
| AGAGTCAAGT | 0.969 ± 0.017 |
| AGAGTCCGCT | 1.18 ± 0.084 |
| AGAGTCGAGG | 0.968 ± 0.047 |
| AGAGTGCGTA | 0.989 ± 0.023 |
| AGAGTGGAGG | 1 ± 0.041 |
| AGAGTGGGGC | 0.9817 ± 0.0089 |
| AGAGTGGTA | 0.9491 ± 0.0052 |
| AGAGTTATGT | 1.019 ± 0.0068 |
| AGAGTTGTTT | 0.997 ± 0.015 |
| AGAGTTTTGG | 0.979 ± 0.025 |
| AGATAAACG | 0.984 ± 0.056 |
| AGATAAAGGG | 1.03 ± 0.017 |
| AGATAACTTT | 1.02 ± 0.013 |
